# Measured values taken from patent US20240010722A1 (published 2024).
# Numbering of substitutions follows the chain as printed.
# T1: human MAdCAM on CHO cells (human, UniProt Q13477 19-382)
# T1 construct: whole, on cells; also called CHO cells over-expressing human MAdCAM
# T1 sequence (looked up): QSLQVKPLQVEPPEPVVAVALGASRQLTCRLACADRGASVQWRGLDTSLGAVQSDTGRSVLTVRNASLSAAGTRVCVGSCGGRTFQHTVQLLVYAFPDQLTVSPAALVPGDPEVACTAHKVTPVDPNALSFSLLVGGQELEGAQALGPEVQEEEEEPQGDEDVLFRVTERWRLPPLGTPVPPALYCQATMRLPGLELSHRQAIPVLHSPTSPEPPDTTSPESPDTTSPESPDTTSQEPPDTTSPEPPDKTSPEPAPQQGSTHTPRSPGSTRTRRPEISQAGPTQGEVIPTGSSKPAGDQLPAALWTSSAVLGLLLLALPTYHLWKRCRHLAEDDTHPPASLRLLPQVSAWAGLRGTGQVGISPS
# T2: murine MAdCAM on cells (mouse, UniProt Q61826 22-405)
# T2 construct: whole, on cells; also called CHO cells over-expressing murine MAdCAM; MAdCAM-1 expressing structures of mouse mesenteric lymph node
# T2 sequence (looked up): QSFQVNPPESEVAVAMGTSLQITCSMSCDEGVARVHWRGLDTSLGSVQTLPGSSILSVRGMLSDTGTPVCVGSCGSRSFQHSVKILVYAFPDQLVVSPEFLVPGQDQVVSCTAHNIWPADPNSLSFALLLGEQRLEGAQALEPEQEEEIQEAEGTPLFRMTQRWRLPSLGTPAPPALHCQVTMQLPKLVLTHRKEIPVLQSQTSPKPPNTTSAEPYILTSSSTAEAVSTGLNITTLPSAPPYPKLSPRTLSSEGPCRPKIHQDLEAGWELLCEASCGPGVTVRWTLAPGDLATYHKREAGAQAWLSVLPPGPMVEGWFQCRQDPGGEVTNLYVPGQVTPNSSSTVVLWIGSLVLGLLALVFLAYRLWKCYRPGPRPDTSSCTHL
# T3: human MAdCAM (human, UniProt Q13477 19-317, limits assumed)
# T3 construct: also called huMAdCAM; human MAdCAM-1
# T3 sequence (looked up): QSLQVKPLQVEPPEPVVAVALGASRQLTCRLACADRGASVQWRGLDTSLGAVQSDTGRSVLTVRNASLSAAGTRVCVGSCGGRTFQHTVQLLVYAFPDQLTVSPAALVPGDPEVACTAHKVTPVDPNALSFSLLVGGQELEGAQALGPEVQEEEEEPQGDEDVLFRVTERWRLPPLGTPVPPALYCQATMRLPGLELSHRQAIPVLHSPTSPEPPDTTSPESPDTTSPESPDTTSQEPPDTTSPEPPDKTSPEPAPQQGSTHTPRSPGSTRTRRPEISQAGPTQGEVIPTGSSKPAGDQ
# B1: MIAB37 (antibody, V domains shown)
# VH: EVQLLESGGGLVQPGGSLRLSCAASGFTFDDYAMHWVRQAPGKGLEWVASITSSSAFIDYADSVKGRFTISRDNSKNTLYLQMNSLRAEDTAVYYCAQERVDWNSYFDLWGQGTLVTVSS
# VL: EIVMTQSPATLSVSPGERATLSCRASQGISNSYLAWYQQKPGQAPRLLIYGASTRATGIPARFSGSGSGTEFTLTISSLQSEDFAVYYCQQYYTYPPTFGQGTKVEIK
# notes: tested with human Fc
# B2: MIAB146 (antibody, V domains shown)
# VH: EVQLLESGGGLVQPGGSLRLSCAASGFTFSDFWMHWVRQAPGKGLEWISYISGDSGYTNYADSVKGRFTISRDNSKNTLYLQMNSLRAEDTAVYYCARDRPYYYYMDVWGKGTTVTVSS
# VL: DIQMTQSPSSLSASVGDRVTITCRASQSVSSSLAWYQQKPGKAPKLLIYAASSLQSGVPSRFSGSGSGTDFTLTISSLQPEDFATYYCQQYKSYPVTFGQGTKVEIK
# notes: tested with human Fc; also called MIAB146-001
# B3: MIAB153 (antibody, V domains shown)
# VH: B2 VH
# VL: B2 VL with A34N
# notes: tested with human Fc
# B4: MIAB149 (antibody, V domains shown)
# VH: B2 VH
# VL: B2 VL with V29I
# notes: tested with human Fc; also called MIAB149-001
# B5: MIAB151 (antibody, V domains shown)
# VH: B2 VH
# VL: B2 VL with V29I, S31R, A34N
# notes: tested with human Fc
# B6: MIAB170 (antibody, V domains shown)
# VH: B2 VH with Y105W
# VL: B2 VL with S31R
# notes: tested with human Fc
# B7: MIAB147 (antibody, V domains shown)
# VH: B2 VH
# VL: B2 VL with S31R, S32Y
# notes: tested with human Fc; also called MIAB147-001
# B8: MIAB148 (antibody, V domains shown)
# VH: B2 VH
# VL: B2 VL with S31R, A34N
# notes: tested with human Fc
# B9: PMAB1 (bispecific antibody, human IgG1, kappa)
# heavy: EVQLLESGGGLVQPGGSLRLSCAASGFTFSNSDMSWVRQAPGKGLEWVSGITISGGSTYYADSVKGRFTISRDNSKNTLYLQMNSLRAEDTAVYYCARGRGGSGWLDYWGQGTLVTVSSASTKGPSVFPLAPSSKSTSGGTAALGCLVKDYFPEPVTVSWNSGALTSGVHTFPAVLQSSGLYSLSSVVTVPSSSLGTQTYICNVNHKPSNTKVDKKVEPKSCDKTHTCPPCPAPEAAGAPSVFLFPPKPKDTLMISRTPEVTCVVVDVSHEDPEVKFNWYVDGVEVHNAKTKPREEQYNSTYRVVSVLTVLHQDWLNGKEYKCKVSNKALPAPIEKTISKAKGQPREPQVYTLPPSREEMTKNQVSLTCLVKGFYPSDIAVEWESNGQPENNYKTTPPVLDSDGSFFLYSKLTVDKSRWQQGNVFSCSVMHEALHNHYTQKSLSLSPGGGGGSGGGGSGGGGSEVQLLESGGGLVQPGGSLRLSCAASGFTFSDFWMHWVRQAPGKGLEWISYISGDSGYTNYADSVKGRFTISRDNSKNTLYLQMNSLRAEDTAVYYCARDRPYYYYMDVWGKGTTVTVSSGGGGSGGGGSGGGGSGGGGSDIQMTQSPSSLSASVGDRVTITCRASQSVSRSLAWYQQKPGKAPKLLIYAASSLQSGVPSRFSGSGSGTDFTLTISSLQPEDFATYYCQQYKSYPVTFGQGTKVEIK
# light: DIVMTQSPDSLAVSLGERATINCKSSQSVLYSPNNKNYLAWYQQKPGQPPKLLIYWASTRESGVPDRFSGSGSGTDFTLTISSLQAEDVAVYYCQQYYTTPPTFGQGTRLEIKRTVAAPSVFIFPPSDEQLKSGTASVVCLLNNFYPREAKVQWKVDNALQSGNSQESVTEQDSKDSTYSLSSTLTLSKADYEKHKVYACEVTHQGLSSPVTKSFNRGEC
# notes: also called parental PMAB1
# Biological target: T1, human MAdCAM on CHO cells
# Assay: flow cytometry on CHO cells
# Method: (§1) Parental CHO cells or CHO cells over-expressing human MAdCAM or murine MAdCAM were seeded onto wells of a 96 well plate (Corning) overnight. After washing 3 times with F12+10% FBS media, the plate was blocked for 1 hour with 5 uM whole human IgG. 10 nM parental MAdCAM-IL-2 M bi-specifics PRNT1 and PRNT2, or optimized variants MIAB12, MIAB13, MIAB25, MIAB26, MIAB37, MIAB204 and MIAB197 were captured for 1 hour. After washing 2 times with F12+10% FBS media, freshly-isolated human PBMCs were stimulated for 60 minutes with captured IL-2 MM bispecifics. Cells were then fixed for 10 minutes with BD Cytofix, permeabilized sequentially with BD Perm III, and BioLegend FOXP3 permeabilization buffer, blocked with human serum and stained for 30 minutes with antibodies against phospho-STAT5 A488, CD25 PE, FOXP3 AF647 and CD4 PerCP Cy5.5, CD3 BV421, CD56 BV785 and acquired on an Attune NXT with plate loader. […] Accordingly, PRNT1, PRNT2, MIAB1, MIAB12, MIAB13, MIAB25, MIAB26, MIAB37 MIAB204, and MIAB197 selectively activate Tregs.
row,binding result,Binder
1,binds,B1

# Biological target: T2, murine MAdCAM on cells
# Assay: flow cytometry on CHO cells
# Method: as §1
row,binding result,Binder
1,binds,B1

# Biological target: T3, human MAdCAM
# Assay: BLI (Octet), binder on anti-human Fc tips
Kd [nM],koff [s⁻¹],kon [M⁻¹ s⁻¹],binding result,Binder
43.8,0.0197,449000,–,B2
8360,0.543,64800,–,B3
68.8,0.0259,376000,–,B4
2960,0.292,98700,–,B5
–,–,–,no binding (tested: 1 µM),B6
–,–,–,no binding (tested: 200 nM),B7
2690,0.314,117000,–,B8

# Biological target: Insulin
# Sequence (P01308 25-54, chain 1 of 2): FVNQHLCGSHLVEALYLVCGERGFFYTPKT
# Sequence (P01308 90-110, chain 2 of 2): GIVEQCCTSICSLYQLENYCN
# Assay: polyreactivity ELISA on insulin coat, 100 nM
# Method: Non-specific DNA and Insulin binding is predictive of poor pharmacokinetics (PK). An immunosorbent plate was coated with dsDNA at a concentration of 1 μg/mL or Insulin at 5 μg/mL in PBS pH 7.4, 75 ul/well, and incubated overnight at 4° C. Wells were washed with PBS pH 7.4 containing 0.05% Tween-20 (wash buffer) three times, and then blocked with 200 ul/well 1% BSA in PBS pH 7.4 (block buffer) for two hours at room temperature. After three washes with wash buffer, TAs and controls Lenzilumab and Elotuzumab were diluted to 100 nM in PBS containing 1% BSA and 0.05% Tween-20 (assay buffer). The diluted material was added to the DNA/insulin coated plate at 75 ul/well for 1 hour at room temperature. After three washes with wash buffer, a donkey anti-human FcY HRP conjugated polyclonal antibody, diluted to 1:5000 in assay buffer, was added to the plate at 75 ul/well for 1 hr at room temperature. After three washes with wash buffer and three washes with wash buffer (with no tween-20), the assay was developed with TMB, and stopped with 1N HCL. OD 450 nm was measured. The experiment included appropriate controls for non-specific binding of test articles to the plate/block in the absence of DNA or insulin.
row,Insulin polyreactivity score,Binder
1,2.61,B2
2,2.46,B3
3,3.53,B4
4,3.63,B5
5,4.73,B6
6,3.81,B7
7,3.63,B8

# Biological target: T2, murine MAdCAM on cells
# Assay: confocal staining of mouse mesenteric lymph node sections, 1 and 10 nM
# Method: Fresh frozen mesenteric lymph node replicates from a 12-week BALB/c mouse were sectioned at 5 um, fixed with acetone, blocked with blockaid buffer solution for ten minutes room temperature and incubated with 1 and 10 nM titrations of test articles overnight at 4-degree Celsius. Tissues were then stained with anti-mouse MAdCAM and anti-human IgG Fc for two hours room temperature, DAPI counterstained and mounted and imaged with confocal microscopy. Clones including optimized MAdCAM (PMAB58 and PMAB18) co-localized with MAdCAM-1 expressing structures similarly to the parental clones (PMAB1 and PMAB57).
row,binding result,Binder
1,binds,B9
